Measurements: patent publication US20200317768A1 (published 2020)
Changes are numbered by the printed parent chain.

T1: cynomolgus monkey FcγRIIIaS extracellular domain with C-terminal His-tag (cynomolgus monkey, UniProt Q8SPW2 21-206 at identity 1.00))
T1 construct: also called cyno FcgRIIIaS; cynoFcγRIIIaS
T1 chain: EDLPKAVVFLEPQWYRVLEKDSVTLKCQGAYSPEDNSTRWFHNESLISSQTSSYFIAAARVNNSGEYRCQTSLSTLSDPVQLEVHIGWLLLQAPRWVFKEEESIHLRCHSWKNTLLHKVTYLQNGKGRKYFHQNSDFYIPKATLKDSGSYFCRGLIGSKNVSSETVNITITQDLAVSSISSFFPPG

T2: cynomolgus monkey FcγRIIb extracellular domain with C-terminal His-tag (cynomolgus monkey)
T2 construct: also called cyno FcgRIIb; cynoFcγRIIb
T2 chain: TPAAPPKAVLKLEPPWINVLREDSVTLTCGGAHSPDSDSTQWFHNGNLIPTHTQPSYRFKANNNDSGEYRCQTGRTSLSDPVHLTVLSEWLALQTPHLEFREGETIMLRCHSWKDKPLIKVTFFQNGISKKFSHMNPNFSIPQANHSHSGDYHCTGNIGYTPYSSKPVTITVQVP

T3: human FcγRIIaR extracellular domain with C-terminal His-tag (human, UniProt P12318 34-217)
T3 construct: also called human FcgRIIaR; FcγRIIa (type R)
T3 chain: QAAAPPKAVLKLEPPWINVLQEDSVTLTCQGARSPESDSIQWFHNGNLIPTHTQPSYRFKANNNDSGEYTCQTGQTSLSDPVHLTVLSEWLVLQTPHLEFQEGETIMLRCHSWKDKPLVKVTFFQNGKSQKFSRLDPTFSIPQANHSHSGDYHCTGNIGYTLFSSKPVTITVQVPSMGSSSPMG

T4: cynomolgus monkey FcγRIIa2 extracellular domain with C-terminal His-tag (cynomolgus monkey)
T4 construct: also called cyno FcgRIIa2; cynoFcγRIIa2
T4 chain: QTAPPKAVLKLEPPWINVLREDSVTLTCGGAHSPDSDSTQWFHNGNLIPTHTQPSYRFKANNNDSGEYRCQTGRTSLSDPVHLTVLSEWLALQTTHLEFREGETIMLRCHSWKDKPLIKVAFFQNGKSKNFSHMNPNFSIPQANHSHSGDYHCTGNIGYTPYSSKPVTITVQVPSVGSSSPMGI

T5: human FcγRIIaH extracellular domain with C-terminal His-tag (human, UniProt P12318 34-217)
T5 construct: also called human FcgRIIaH; FcγRIIa (type H)
T5 sequence: T3 chain with R134H

T6: human FcγRIIb extracellular domain with C-terminal His-tag (human, UniProt P31994 43-217)
T6 construct: also called human FcgRIIb
T6 sequence: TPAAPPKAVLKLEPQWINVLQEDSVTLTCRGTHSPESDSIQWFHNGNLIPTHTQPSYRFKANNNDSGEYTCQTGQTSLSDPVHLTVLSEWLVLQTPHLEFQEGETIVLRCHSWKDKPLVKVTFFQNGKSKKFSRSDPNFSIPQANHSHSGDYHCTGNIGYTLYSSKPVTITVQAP

T7: cynomolgus monkey FcγRIIa1 extracellular domain with C-terminal His-tag (cynomolgus monkey)
T7 construct: also called cyno FcgRIIa1; cynoFcγRIIa1
T7 chain: T4 chain with T95P, A121T, K127I, S128A, N130K, N135D, Q142R

B1: M103205H795-MY520/M103202L889-SK1 (antibody, human IgG1, kappa)
heavy: QVTLKESGPVLVKPTETLTLTCTVSGIDLSHDDISWVRQAPGKGLEWVGIISYAGSTYYASWAKGRLTISKDTSKNQVVLTMTNMDPVDTATYYCARGVPAYSHGGDLWGQGTLVTVSSASTKGPSVFPLAPSSKSTSGGTAALGCLVKDYFPEPVTVSWNSGALTSGVHTFPAVLQSSGLYSLSSVVTVPSSSLGTQTYICNVNHKPSNTKVDKKVEPKSCDKTHTCPPCPADELLTGPVVFLFPPKPKDTLMISRTPEVTCVVVDVSDEDPEVKFNWYVDGVEVHNAKTKPREELYNSTYRVVSVLTVLHQDWLNGKEYKCKVSNKALPKPIEKTISKAKGQPREPQVYTLPPSREEMTKNQVSLTCLVKGFYPSDIAVEWESNGQPENNYKTTPPVLDSDGSFFLYSKLTVDKSRWQQGNVFSCSVMHEALHNHYTQKSLSLSP
light: DIVMTQSPATLSLSPGERATLSCTSSQSVYHANWLSWFQQKPGQPPKLLIYWASTLAYGVPSRFSGSGSGTDFTLTISSLQPEDAATYYCAGGYGGGRYAFGQGTKVEIKRTVAAPSVFIFPPSDEQLKSGTASVVCLLNNFYPREAKVQWKVDNALQSGNSQESVTEQDSKDSTYSLSSTLTLSKADYEKHKVYACEVTHQGLSSPVTKSFNRGEC
notes: Substitutions introduced into M103205H795-SG1, expressed with M103202L889-SK1 as light chain; EU numbering
B2: M103205H795-MY521/M103202L889-SK1 (antibody, human IgG1, kappa)
heavy: B1 heavy with V241S
light: B1 light
notes: as for B1
B3: M103205H795-MY522/M103202L889-SK1 (antibody, human IgG1, kappa)
heavy: B1 heavy with A233G, D234P, L297Q
light: B1 light
notes: as for B1
B4: M103205H795-MY523/M103202L889-SK1 (antibody, human IgG1, kappa)
heavy: B1 heavy with A233G, D234P
light: B1 light
notes: as for B1
B5: M103205H795-MY524/M103202L889-SK1 (antibody, human IgG1, kappa)
heavy: B1 heavy with A233G, D234P, V241S
light: B1 light
notes: as for B1
B6: M103205H795-MY525/M103202L889-SK1 (antibody, human IgG1, kappa)
heavy: B1 heavy with A233T, D234P, L297Q
light: B1 light
notes: as for B1
B7: M103205H795-MY526/M103202L889-SK1 (antibody, human IgG1, kappa)
heavy: B1 heavy with A233T, D234P
light: B1 light
notes: as for B1
B8: M103205H795-MY527/M103202L889-SK1 (antibody, human IgG1, kappa)
heavy: B1 heavy with A233T, D234P, V241S
light: B1 light
notes: as for B1

How the values were obtained:
Assay in all cases: SPR (BIACORE), antibody captured, FcgR analyte
[1] = target: T1, cynomolgus monkey FcγRIIIaS …
[2] = target: T2, cynomolgus monkey FcγRIIb extracellular …
[3] = target: T3, human FcγRIIaR extracellular domain …
[4] = target: T4, cynomolgus monkey FcγRIIa2 …
[5] = target: T5, human FcγRIIaH extracellular domain …
[6] = target: T6, human FcγRIIb extracellular domain with …
[7] = target: T8, human FcγRIIIaV extracellular domain with C-terminal His-tag (human, UniProt P08637 17-208)
T8 construct: also called human FcgRIIIaV
T8 sequence (P08637 17-208 F176V): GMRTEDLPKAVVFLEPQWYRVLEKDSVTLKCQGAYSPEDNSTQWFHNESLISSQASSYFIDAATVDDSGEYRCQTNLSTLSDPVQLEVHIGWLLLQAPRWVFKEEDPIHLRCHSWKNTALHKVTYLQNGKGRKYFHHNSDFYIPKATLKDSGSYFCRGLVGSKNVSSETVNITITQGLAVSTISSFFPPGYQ

[8] = target: T7, cynomolgus monkey FcγRIIa1 …

Binder | Kd [1] | Kd [2] | Kd [3] | Kd [4] | Kd [5] | Kd [6] | Kd [7] | Kd [8]
B1 | 2 µM | 0.96 µM | 0.34 µM | 2.3 µM | 0.49 µM | 1.4 µM | 3.5 µM | 2.5 µM
B2 | 2.2 µM | 0.8 µM | 0.3 µM | 33 µM | 0.39 µM | 1.5 µM | 5.2 µM | 2.5 µM
B3 | 1.9 µM | 0.53 µM | 0.17 µM | 1.2 µM | 0.24 µM | 1.1 µM | 5.7 µM | 1.7 µM
B4 | 2.1 µM | 0.43 µM | 0.21 µM | 1.3 µM | 0.19 µM | 1.1 µM | 5.5 µM | 1.4 µM
B5 | 2 µM | 0.31 µM | 0.28 µM | 11 µM | 0.11 µM | 1 µM | 4.5 µM | 1 µM
B6 | 1.4 µM | 0.51 µM | 0.16 µM | 1.1 µM | 0.21 µM | 1.2 µM | 4.3 µM | 1.6 µM
B7 | 16 µM | 0.45 µM | 0.21 µM | 1.2 µM | 0.17 µM | 1.2 µM | 4.3 µM | 13 µM
B8 | 1.5 µM | 0.34 µM | 0.29 µM | 1.3 µM | 0.11 µM | 1.4 µM | 4.3 µM | 1.1 µM
